Consider 11 molecules from patent publication US20130344085A1 (published 2013).

Numbering of substitutions follows the chain as printed.

One experiment addresses biotinylated human PCSK9 (UniProt Q8NBP7 31-692, biotinylated (sites not given)). Put plainly: competition binding ELISA (PCSK9-LDLR). (An ELISA detects its analyte on a solid surface through an enzyme-linked reagent.)
Experiment [1] deals with Human PCSK9 (Genbank EF692496) containing a histidine (His)8 C-terminal tag (UniProt Q8NBP7 31-692). Put plainly: BIAcore SPR. A general note: In SPR one partner is held on a chip, and binding of the other changes the refractive index at the surface.
The next experiment has as its target murine PCSK9. Description: BIAcore SPR.
The next experiment concerns the target Rat PCSK9. Description: BIAcore SPR.
The next experiment deals with Cyno PCSK9. Description: BIAcore SPR.
A further experiment addresses rhesus PCSK9. Put plainly: BIAcore SPR.

B1: anti-PCSK9 antibody 508.20.84 (antibody, V domains shown)
VH: EVQLVESGGGLVQPGGSLRLSCAASGFTFTGYAIHWVRQAPGKGLEWVARISPANGNTNYADSVKGRFTISADTSKNTAYLQMNSLRAEDTAVYYCARWIGSRELYIMDYWGQGTLVTVSS
VL: DIQMTQSPSSLSASVGDRVTITCRASQDVSTAVAWYQQKPGKAPKLLIYSASFLYSGVPSRFSGSGSGTDFTLTISSLQPEDFATYYCQQSYPAPSTFGQGTKVEIK
Take B1: in the experiment with biotinylated human PCSK9, the 50% inhibitory concentration (IC50) – broadly, the concentration that gives 50% inhibition – was 1.39 nM. The dissociation constant Kd (as a rule, the concentration at which binding is half-saturated) in experiment [1] turned out to be 0.481 nM.

B2: anti-PCSK9 antibody 508.20.06 (antibody, V domains shown)
VH: B1 VH
VL: B1 VL with A94S, S96A
For B2, in the experiment with biotinylated human PCSK9, the concentration for half-maximal inhibition (IC50) came to 1 nM. Besides, binding in experiment [1] was put at a Kd of 0.628 nM.

B3: YW508.20.28b (antibody, V domains shown)
VH: B1 VH with G31R, Y32H, A33T, H35N
VL: B1 VL with P93R, A94I, P95Q, S96P
Molecule B3 registered a Kd with murine PCSK9 of 0.323 nM.

B4: anti-PCSK9 antibody 508.20.28b (antibody, V domains shown)
VH: B1 VH with G31R, Y32H, A33T, H35N
VL: B1 VL with P93R, A94I, P95Q, S96P
In the experiment with biotinylated human PCSK9, B4 had an IC50 of 1.05 nM. The affinity in experiment [1], expressed as Kd, was 0.349 nM.

B5: YW508.20.06 (antibody, V domains shown)
VH: B1 VH
VL: B1 VL with A94S, S96A
As for B5, binding in the experiment with murine PCSK9 was put at a Kd of 0.201 nM.

B6: YW508.20.33b (antibody, V domains shown)
VH: B1 VH with T30S, G31S, Y32T
VL: DIQMTQSPSSLSASVGDRVTITCRASQDVSTAVAWYQQKPGKAPKLLIYSASFLYSGVPSRFSGSGSGTDFTLTISSLQPEDFATYYCQQAYPALHTFGQGTKVEIKR
For B6, the Kd stood at 0.0123 nM with murine PCSK9, 0.0182 nM with Rat PCSK9, 0.0624 nM with Cyno PCSK9 and 4.09 nM with rhesus PCSK9.

B7: YW508.20.04b (antibody, V domains shown)
VH: B1 VH
VL: B1 VL with S96A
Turning to B7, the Kd with murine PCSK9 was 0.117 nM.

B8: anti-PCSK9 antibody 508.20.04b (antibody, V domains shown)
VH: B1 VH
VL: B1 VL with S96A
Regarding B8, in the experiment with biotinylated human PCSK9, the concentration for half-maximal inhibition (IC50) came to 0.92 nM. For the same molecule, the Kd in experiment [1] was found to be 0.757 nM.

B9: YW508.20.33b reformatted into human IgG1 having a heavy chain with SEQ ID NO: 35 and a light chain with SEQ ID NO: 36 (antibody, V domains shown)
VH: B1 VH with T30S, G31S, Y32T
VL: B6 VL
B9 returned an IC50 with biotinylated human PCSK9 of 1.31 nM. This molecule also returned a Kd in experiment [1] of 0.408 nM.

B10: YW508.20.84 (antibody, V domains shown)
VH: B1 VH
VL: B1 VL
B10 gave an equilibrium dissociation constant (Kd) in the experiment with murine PCSK9 of 0.135 nM.

B11: YW508.20b (antibody, V domains shown)
VH: B1 VH
VL: B1 VL with P93T, A94T, S96P
In the experiment with biotinylated human PCSK9, B11 came in with an IC50 of 15.2 nM.
